Assay [1] relates to IL-23 induced STAT3 signaling in HEK-Blue™ IL-23 cells. The assay is described as follows: IL-23 induced STAT3 signaling in HEK-Blue IL-23 cells (SEAP reporter). It counts as cell-based. The conditions noted are these: human IL23 0.25 ng/ml, read-out: pSTAT3. From the text:
HEK-Blue™ IL-23 cells (Invivogen) are designed for the detection of bioactive human (hIL-23) and murine IL-23 (mIL-23) by monitoring the activation of the STAT3 pathway. Binding of IL-23 to its receptor on the surface of HEK-Blue™ IL-23 cells triggers a signalling cascade leading to the activation of STAT3 and the subsequent production of secreted embryonic alkaline phosphatase (SEAP). This can be readily assessed using QUANTI-Blue™ Solution, a SEAP detection reagent.
HEK-Blue™ IL-23 cells were cultured as described by Invivogen.
On the first day of assay 10 μL of the HEK-Blue IL23 cell suspension (final concentration: 10,000 cells/well) and 10 μl of serially diluted peptides solutions were dispensed into a 384-well assay plate. After pre-incubation of the reaction mixtures at 37° C./5% CO2/95% humidity for 60 minutes, 10 μl of the human IL23 cytokine (final concentration: 0.25 ng/ml) was added to each well for the STAT3 signalling activation. The plate was incubated overnight at 37° C./5% CO2/95% humidity.
On the second day 20 μl per well of Quanti-Blue detection solution (prepared according to the manufacture instruction) was dispensed into a new 384-well plate and followed by the transfer of 5 μl supernatant of the overnight incubated cell/sample mixtures. After incubation of 45 min at room temperature signals were measured with PHERAstar (BMG) at OD 620-655 nm. Dose response data were fitted with XLfit.

The target of assay [2] is T1, human interleukin-23 receptor (recombinant human IL-23R-Fc chimera) (Homo sapiens, UniProt Q5VWK5).
T1 construct: Fc (IgG Fc fusion)
The assay is described as follows: Human ELISA IL23/IL23R (assay for specific human IL23R antagonists). As to conditions: Table 10; read-out: Human ELISA IL23/IL23R IC50. It counts as binding. How it is done: Antagonism of compounds for human interleukin-23 receptor antagonists, was determined by an ELISA assay.
A 384-well plate was coated with 50 μl/well of human IL23 at a final concentration of […] and incubated overnight at 4° C. The wells were washed 3 times with 80 μl wash buffer and blocked with 80 μl blocking buffer for 60 minutes at room temperature and washed again. 20 μl of serially diluted test peptides was added to each well and subsequently 20 μl of recombinant human IL-23R-Fc chimera at final concentration of 0.1 μg/ml. The plate was incubated for 60 minutes at room temperature. After the wells were washed, bound IL23R-Fc was detected with goat anti-hu-IgG1-HRP antibody. Signals were visualized with QuantaBlu Fluorogenic Peroxidase Substrate.

For assay [3], the target named is T2, IL-23 receptor on the surface of HEK-Blue IL-23 cells (UniProt Q5VWK5 24-629, limits assumed).
T2 sequence (looked up): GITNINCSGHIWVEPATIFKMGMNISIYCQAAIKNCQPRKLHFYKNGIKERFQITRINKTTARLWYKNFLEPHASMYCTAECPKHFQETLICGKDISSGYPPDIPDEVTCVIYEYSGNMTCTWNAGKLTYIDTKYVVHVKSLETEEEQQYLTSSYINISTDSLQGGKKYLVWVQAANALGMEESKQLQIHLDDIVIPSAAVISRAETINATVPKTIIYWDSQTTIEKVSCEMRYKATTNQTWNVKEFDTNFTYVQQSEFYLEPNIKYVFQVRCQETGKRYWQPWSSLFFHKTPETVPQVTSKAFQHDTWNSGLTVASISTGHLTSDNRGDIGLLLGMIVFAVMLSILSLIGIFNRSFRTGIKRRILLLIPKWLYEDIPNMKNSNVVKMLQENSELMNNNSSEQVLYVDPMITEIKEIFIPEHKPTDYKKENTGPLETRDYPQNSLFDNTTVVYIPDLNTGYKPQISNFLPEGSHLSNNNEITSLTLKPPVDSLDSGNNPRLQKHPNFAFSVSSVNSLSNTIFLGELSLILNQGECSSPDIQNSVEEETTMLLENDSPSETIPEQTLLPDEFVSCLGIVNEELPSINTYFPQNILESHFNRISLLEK
The assay is described as follows: cell-based or functional assay.

Starred links: 1 amine or outer side, 2 acyl side, 3 side chain; linkers in the order of their positions; H or OH if unused. Positions of bridges follow the written chain, without caps; N, C: chain ends. Non-standard residues stand in square brackets, D forms with d. Residues, ends and D or L forms follow the SMILES beside them. No end group written: not given here. *: point of attachment. Yde = (2S)-2-amino-3-[4-[2-(dimethylamino)ethoxy]phenyl]propanoic acid, CN(C)CCOc1ccc(C[C@H](N[*:1])C(=O)[*:2])cc1; Phe(4-OMe) = COc1ccc(C[C@H](N[*:1])C(=O)[*:2])cc1; Trp(7-Me) = Cc1cccc2c(C[C@H](N)C(=O)O)c[nH]c12; αMeLys(Me2) = CN(C)CCCC[C@](C)(N)C(=O)O; 2Nal = N[C@@H](Cc1ccc2ccccc2c1)C(=O)O; AEF = NCCOc1ccc(C[C@H](N)C(=O)O)cc1; 3Pal = N[C@@H](Cc1cccnc1)C(=O)O; Dad = desamino-aspartamic acid; αMeL = CC(C)C[C@](C)(N)C(=O)O; Suc = O=C(CCC(=O)[*:2])[*:1]; Nmapt = not defined here; Thp = NC1(C(=O)O)CCOCC1; Me2NCH2CH2 = CN(C)CC*; Aib = CC(C)(N)C(=O)O; Ahx = NCCCCCC(=O)O; Ava = NCCCCC(=O)O

For `Cc1cccc2c(C[C@@H]3NC(=O)[C@H]([C@@H](C)O)NC(=O)[C@H](CC(N)=O)NC(=O)[C@@H]4CSSC[C@H](NC(=O)[C@H](CC(C)C)NC3=O)C(=O)N[C@@H](Cc3ccc(OCCN(C)C)cc3)C(=O)N[C@@H](Cc3ccc5ccccc5c3)C(=O)N[C@@](C)(CCCCN(C)C)C(=O)N[C@H](C(=O)N[C@@H](CC(N)=O)C(=O)N[C@@H](Cc3cccnc3)C(N)=O)CCCCNC(=O)CCC(=O)N4)c[nH]c12` [compound 150] (CNT[Trp(7-Me)]LCY(Me2NCH2CH2)[2Nal][αMeLys(Me2)]KN[3Pal]-NH2; disulfide 1-6; linker N-10 via Suc), the IC50 was 0.13 nM in assay [1] and 0.91 nM in assay [2].

As to `COc1ccc(C[C@@H]2NC(=O)[C@H]3NC(=O)[C@H](CCC(N)=O)NC(=O)[C@H](Cc4c[nH]c5ccccc45)NC(=O)CCCCNC(=O)[C@H](CCC(=O)O[C@@H]3C)NC(=O)CCCCCNC(=O)C[C@@H](C(=O)N[C@@H](CC(N)=O)C(=O)N[C@@H](CC(N)=O)C(N)=O)NC(=O)C(C)(C)NC(=O)[C@H](Cc3ccc4ccccc4c3)NC2=O)cc1` [compound 39] ([Ahx]E[Ava]WQTY(Me)[2Nal][Aib]DNN-NH2; ester 2-6; lactam N-10), the IC50 in assay [1] was 26.4 nM; in assay [2], 1.1 nM.

B1: Compound of SEQ ID NO: 14 (peptide)
peptide: [Nmapt]CKWQC[AEF][2Nal][αMeL]ENN-NH2
modifications: lactam N-10; disulfide 2-6; not fully specified (residue 3); printed as Nmapt(§1)-C(§3)(@2)-K[aAc](@3)-W-Q-C(@2)-Yae-Nal-Mle-E(§1)-N—N—NH2; reading uncertain; also: K[aAc]: Cys2 bonded to epsilon-NH2 of acetylated Lys3, acetyl presumably on alpha-amine
Turning to B1, in assay [3], the “pSTAT3 (nM)” value was found to be 18.7 nM.

B2: Compound of SEQ ID NO: 10 (peptide)
peptide: [Ava]CNTWQC[Yde][2Nal][αMeL]EN[dL]-NH2
modifications: lactam N-11; disulfide 2-7
SMILES: CC(C)C[C@@H](NC(=O)[C@H](CC(N)=O)NC(=O)[C@@H]1CCC(=O)NCCCCC(=O)N[C@H]2CSSC[C@H](NC(=O)[C@H](CCC(N)=O)NC(=O)[C@H](Cc3c[nH]c4ccccc34)NC(=O)[C@H]([C@@H](C)O)NC(=O)[C@H](CC(N)=O)NC2=O)C(=O)N[C@@H](Cc2ccc(OCCN(C)C)cc2)C(=O)N[C@@H](Cc2ccc3ccccc3c2)C(=O)N[C@@](C)(CC(C)C)C(=O)N1)C(N)=O
For the molecule B2, the “pSTAT3 (nM)” value in assay [3] is 25.8 nM.

B3: Compound of SEQ ID NO: 19 (peptide)
peptide: [Nmapt]CKWQC[AEF][2Nal][Aib]EA[dL]-NH2
modifications: lactam N-10; disulfide 2-6; not fully specified (residue 3); printed as Nmapt(§1)-C(§3)(@2)-K[aAc](@3)-W-Q-C(@2)-Yae-Nal-Aib-E(§1)-A-(D-Leu)-NH2; reading uncertain; also: K3 acetylated (K[aAc]), acetyl site not given here, ε-NH2 takes the Cys2 bond
On to B3, for which, in assay [3], the “pSTAT3 (nM)” value worked out at 88.3 nM.

B4: Compound of SEQ ID NO: 18 (peptide)
peptide: [Nmapt]CKWQC[AEF][2Nal][αMeL]EAG-NH2
modifications: lactam N-10; disulfide 2-6; not fully specified (residue 3); printed as Nmapt(§1)-C(§3)(@2)-K[aAc](@3)-W-Q-C(@2)-Yae-Nal-Mle-E(§1)-A-G-NH2; reading uncertain; also: K3 acetylated (K[aAc]), acetyl site not given here, ε-NH2 takes the Cys2 bond
Turning to B4, the “pSTAT3 (nM)” value in assay [3] amounted to 69.5 nM.

B5: Compound of SEQ ID NO: 13 (peptide)
peptide: [Nmapt]CKWQC[AEF][2Nal][Thp]ENN-NH2
modifications: lactam N-10; disulfide 2-6; not fully specified (residue 3); printed as Nmapt(§1)-C(§3)(@2)-K[aAc](@3)-W-Q-C(@2)-Yae-Nal-Thp-E(§1)-N—N—NH2; reading uncertain; also: K[aAc]: Cys2 bonded to epsilon-NH2 of acetylated Lys3, acetyl presumably on alpha-amine
Regarding B5, the “pSTAT3 (nM)” value in assay [3] came out at 32 nM.

B6: Compound of SEQ ID NO: 17 (peptide)
peptide: [Nmapt]CKWQC[AEF][2Nal][Thp]EAG-NH2
modifications: lactam N-10; disulfide 2-6; not fully specified (residue 3); printed as Nmapt(§1)-C(§3)(@2)-K[aAc](@3)-W-Q-C(@2)-Yae-Nal-Thp-E(§1)-A-G-NH2; reading uncertain; also: K3 acetylated (K[aAc]), acetyl site not given here, ε-NH2 takes the Cys2 bond
In the case of B6, in assay [3], the “pSTAT3 (nM)” value amounted to 62 nM.

B7: Compound of SEQ ID NO: 16 (peptide)
peptide: [Nmapt]CKWQC[AEF][2Nal][Thp]ENG-NH2
modifications: lactam N-10; disulfide 2-6; not fully specified (residue 3); printed as Nmapt(§1)-C(§3)(@2)-K[aAc](@3)-W-Q-C(@2)-Yae-Nal-Thp-E(§1)-N-G-NH2; reading uncertain; also: K3 acetylated (K[aAc]), acetyl site not given here, ε-NH2 takes the Cys2 bond
On to B7, for which the “pSTAT3 (nM)” value in assay [3] is 32.1 nM.

B8: Compound of SEQ ID NO: 1 (peptide)
peptide: [Ava]CNTWQC[Phe(4-OMe)][2Nal][Aib]ENN-NH2
modifications: lactam N-11; disulfide 2-7
SMILES: COc1ccc(C[C@@H]2NC(=O)[C@@H]3CSSC[C@H](NC(=O)CCCCNC(=O)CC[C@@H](C(=O)N[C@@H](CC(N)=O)C(=O)N[C@@H](CC(N)=O)C(N)=O)NC(=O)C(C)(C)NC(=O)[C@H](Cc4ccc5ccccc5c4)NC2=O)C(=O)N[C@@H](CC(N)=O)C(=O)N[C@@H]([C@@H](C)O)C(=O)N[C@@H](Cc2c[nH]c4ccccc24)C(=O)N[C@@H](CCC(N)=O)C(=O)N3)cc1
On to B8, for which, in assay [3], the “pSTAT3 (nM)” value turned out to be 18.5 nM.

B9: Compound of SEQ ID NO: 15 (peptide)
peptide: [Nmapt]CKWQC[AEF][2Nal][Aib]ENG-NH2
modifications: lactam N-10; disulfide 2-6; not fully specified (residue 3); printed as Nmapt(§1)-C(§3)(@2)-K[aAc](@3)-W-Q-C(@2)-Yae-Nal-Aib-E(§1)-N-G-NH2; reading uncertain; also: K3 acetylated (K[aAc]), acetyl site not given here, ε-NH2 takes the Cys2 bond
Regarding B9, the “pSTAT3 (nM)” value in assay [3] turned out to be 29.2 nM.

B10: Compound of SEQ ID NO: 11 (peptide)
peptide: [Dad]CNTWQC[Phe(4-OMe)][2Nal][Aib]KNN-NH2
modifications: lactam (positions not given here); disulfide 2-7; not fully specified (bridges); printed as Dad(§1)-C(@2)-N-T-W-Q-C(@2)-Yme-Nal-Aib-K(§1)-N—N—NH2
For B10, the “pSTAT3 (nM)” value in assay [3] was determined as 53.5 nM.

B11: Compound of SEQ ID NO: 12 (peptide)
peptide: [Nmapt]CKWQC[AEF][2Nal][Aib]ENN-NH2
modifications: lactam N-10; disulfide 2-6; not fully specified (residue 3); printed as Nmapt(§1)-C(§3)(@2)-K[aAc](@3)-W-Q-C(@2)-Yae-Nal-Aib-E(§1)-N—N—NH2; reading uncertain; also: K[aAc]: Cys2 bonded to epsilon-NH2 of acetylated Lys3, acetyl presumably on alpha-amine
Consider B11, for which, in assay [3], the “pSTAT3 (nM)” value was found to be 27.9 nM.

(Values after patent US20260258084A1, “New Peptides as Selective IL-23 Receptor Antagonists” (Sanofi, priority 2022, published 2026).)
